Source: patent publication US20120277286A1, “COMPOSITIONS AND METHODS FOR THE TREATMENT OR PREVENTION OF MITOCHONDRIAL DISEASES” (The Government of the USA, as represented by the Secretary, …, priority 2009, published 2012)
Where a SMILES comes first, the peptide text is derived from it. The star is where a group is joined. Cbz = O=C(OCc1ccccc1)*

Legend:
Type in all cases: cell-based
[1] = tested on: HeLa cells; assay: Mitochondrial translocation of Parkin by imaging (Examples 4 and 5); conditions: HeLa stably expressing YFP-Parkin, MG132 for 8 hrs
Method: Cells were cultured in borosilicated chamber slides for imaging, 6-well plates for whole cell lysates, and 100 or 150 mm culture dish for subcellular fractionation. One day after seeding, cells were transfected with indicated constructs using Fugene HD (Roche) or Lipofectamine 2000 (Invitrogen) according to the manufacturer's guidelines.
For immunocytochemistry, cultured cells in borosilicated chamber slides were fixed with 4% paraformaldehyde in PBS (USB) and permeabilized with the indicated detergent. After 30 min blocking with 10% BSA in PBS, cells were stained with the following primary antibodies: antiTom20 polyclonal antibody (Santa Cruz Biotechnology, Inc.) and anti-cytochrome C monoclonal antibody (BD), or anti-Tom20 monoclonal antibody (BD) and anti-GFP polyclonal antibody (Invitrogen) and then with the following secondary antibodies: goat anti-mouse/rabbit IgG antibody conjugated with Alexa Fluor 594/647, respectively. In case of live cell imaging, cells were pulsed with 600 nM TMRE for 5 min to evaluate mitochondrial membrane potential or 10 nM Mitotracker Red for 30 min to see the mitochondrial morphology. Cells were imaged using an inverted microscope (LSM510 Meta; Carl Zeiss) with 63×/1.4 oil DIC Plan Apo objective. Image contrast and brightness were adjusted in LSM image browser (Carl Zeiss).

[2] = tested on: PINK1; assay: PINK1 accumulation by fractionation and immunoblotting
Excerpt: (§1) For PINK1 experiments, cells were fractionated using the Mitochondria Isolation Kit (Pierce), according to manufacturer's specifications with slight modifications. To isolate integral membrane proteins, membrane fractions obtained as above were carbonate extracted with 0.1M Na2CO3 fresh cold buffer and membranes were pelleted, as described in the supplemental methods. For Parkin experiments, cells were fractionated as described previously, with minor modifications described in the supplemental methods (Narendra (2008) J Cell Biol 183: 795-803). The following primary antibodies were used: anti-Parkin (PRK8) monoclonal (Santa Cruz), anti-Tom20 polyclonal (Santa Cruz), anti-cytochrome c monoclonal (BD Biosciences), anti-PINK1 polyclonal (Novus Biologicals), anti-VDAC monoclonal (Calbiochem), anti-GAPDH polyclonal (Sigma-Aldrich), anti-Tubulin monoclonal (Sigma-Aldrich), anti-V5 monoclonal (Invitrogen), anti-GFP polyclonal (Invitrogen).
as §1, with “with slight modifications described in the supplemental methods. To isolate” for “with slight modifications. To isolate”, “minor modifications detailed in the” for “minor modifications described in the”, “supplemental methods (Narendra (2008) J Cell Biol 183: 795-803). The protease protection assay was performed as described previously (Chen (2005) J Biol Chem 280: 26185-26192). Cells were fixed and immunostained as described previously (Narendra (2008)” for “supplemental methods (Narendra (2008)”, “anti-GFP polyclonal (Invitrogen), anti-TIM23 monoclonal (BD Biosciences), and anti-Hsp60 monoclonal (Stressgen).” for “anti-GFP polyclonal (Invitrogen).”

[3] = tested on: HeLa cells; assay: Parkin in mitochondria-rich membrane fraction, immunoblot; conditions: for translocation of YFP-Parkin variant to mitochondria-rich membrane fraction: HeLa, CCCP 1 hr, Western blotting
Excerpt: as §1
as §1, with “with slight modifications described in the supplemental methods. To isolate” for “with slight modifications. To isolate”, “minor modifications detailed in the” for “minor modifications described in the”, “supplemental methods (Narendra (2008) J Cell Biol 183: 795-803). The protease protection assay was performed as described previously (Chen (2005) J Biol Chem 280: 26185-26192). Cells were fixed and immunostained as described previously (Narendra (2008)” for “supplemental methods (Narendra (2008)”, “anti-GFP polyclonal (Invitrogen), anti-TIM23 monoclonal (BD Biosciences), and anti-Hsp60 monoclonal (Stressgen).” for “anti-GFP polyclonal (Invitrogen).”

[4] = tested on: HeLa cells; assay: Parkin colocalization with mitochondria scored by confocal microscopy; conditions: for YFP-Parkin (wild type or indicated mutant) colocalization with mitochondria, % of cells: HeLa cells, 1 hour
Method: (§2) Cultured cells seeded in borosilicate chamber slides (Thermo Fisher Scientific) were transfected or cotransfected with YFP-Parkin, ECFP-Parkin, mCherry-Parkin, DsRed-Mito (Clontech Laboratories, Inc.), pcDNA3.1 (Invitrogen), vMIA, and/or Drp1K38A constructs using Fugene 6 (Roche). Parkin-myc was a gift from M. Cookson (National Institutes of Health, Bethesda, Md.). Cells were fixed 12-24 hours after transfection with 4% paraformaldehyde in PBS. Cells were stained with following primary antibodies: mouse monoclonal cytochrome c (BD), rabbit polyclonal Tom20 (Santa Cruz Biotechnology, Inc.), mouse monoclonal Parkin PRK8 (Santa Cruz Biotechnology, Inc.), rabbit polyclonal PMP70 (Invitrogen), and/or mouse monoclonal TRAP1 (Abcam); and with the following secondary antibodies: mouse and/or rabbit Alexa 488, 594, and 633 (Invitrogen). For assessment of mitochondrial membrane potential, cells were pulsed with 50 nM Mito-Tracker red (Invitrogen) for 15 min, washed, and incubated for an additional 10 minutes before fixation or imaging. For assessment of cell metabolic potential, cell nuclei were stained with Hoechst 33342 (Invitrogen).
Fixed cells and live cells in the FLIP assay were imaged using an inverted microscope (LSM510 Meta; Carl Zeiss, Inc.) with a 63×/1.4 oil DIC Plan Apo objective at 25° C. and 37° C., respectively. For the FLIP assay, a bleach region of interest (ROI) occupying approximately one eighth of the cell was positioned over a relatively mitochondria-free portion of the cytosol. Cells were alternately bleached (488 nm using a 30-mW argon laser at 75% power and 100% transmission for 150 iterations) and imaged (488 nm at 75% power and 2% transmission) for 10 minutes (—60 cycles over the length of the experiment). Two channel prebleach and postbleach images were obtained with 488 and 594 lasers to assess the position of mitochondria before and after bleaching. Circular ROIs with diameters of ˜1 and 5 μm, respectively, were placed over the mitochondria and cytosol of the target cell, and an ROI of 10 μm was placed over the control cell. Imaging of YFP-Parkin translocation in live HeLa cells was performed on a live cell imager system (UltraView LCI; PerkinElmer) at 35° C. with a 100×/1.45 α-Plan-Fluor objective.
Image contrast and brightness were adjusted in Photoshop (Adobe). Colocalization was assessed with line scans using MetaMorph (MDS Analytical Technologies). For analysis of mitochondrial membrane potential in cells, mitochondrial voxels in each image (the cytochrome c channel threshold was ≧400 au) were segregated into Parkin-positive (the YFP-Parkin channel threshold was ≧1,100 au) or Parkin-negative subsets, and MitoTracker intensity for each voxel was measured using Volocity software (Improvision). For each cell, the mean MitoTracker intensity per voxel was calculated for the Parkin-positive and Parkin-negative subsets. The difference in mean Mito-Tracker intensity between the Parkin-positive and Parkin-negative subsets was calculated using a paired t test. Western blotting HeLa cells stably expressing YFP-Parkin, HEK293 cells, and rat cortical neurons 2 days in vitro were harvested and fractionated as described previously (Karbowski et al., J. Cell Biol. 178: 71-84, 2007). Samples were run on SDS-PAGE and immunoblotted with the following antibodies: polyclonal rabbit anti-GFP (Invitrogen), mouse monoclonal anti-Parkin (PRK8), and mouse monoclonal anti-Porin 31HL (EMD).
(§3) Confocal microscopy of fixed samples, scoring of Parkin recruitment and Parkininduced mitophagy, and live cell imaging were performed as described previously (Narendra (2008) J Cell Biol 183: 795-803). Experiments in Mfn1/2 null cells were performed as described previously with minor modifications.
Confocal microscopy of fixed samples, scoring of Parkin recruitment and Parkin-induced mitophagy, and live cell imageing were performed as described previously (Narendra (2008) J Cell Biol 183: 795-803). […]

[5] = tested on: HeLa cells; assay: Parkin-induced mitophagy, loss of mitochondria by immunocytochemistry; conditions: HeLa expressing YFP-Parkin variant, CCCP 24 hours
Method: as §2, §3
Confocal microscopy of fixed samples, scoring of Parkin recruitment and Parkin-induced mitophagy, and live cell imageing were performed as described previously (Narendra (2008) J Cell Biol 183: 795-803). Experiments in Mfn1/2 null cells were performed as described previously with minor modifications described in the supplemental methods (Narendra (2008) J Cell Biol 183: 795-803).

CC(C)C[C@@H](C=O)NC(=O)[C@H](CC(C)C)NC(=O)[C@H](CC(C)C)NC(=O)OCc1ccccc1 [MG132, reference compound] (Cbz-Leu-Leu-Leu-aldehyde)
mitochondrial translocation of Parkin [1]: no mitochondrial translocation of Parkin was detected
appearance of short form of PINK1 ([2]; HeLa treated with vehicle, 50 μM MG132 for final hour): ˜52 kDa band appears

C[C@@H]1C[C@@H]([C@H](O)CC2CC(=O)NC(=O)C2)C(=O)[C@@H](C)C1 [cycloheximide, reference compound]
effect on YFP-Parkin accumulation in mitochondrial enriched heavy membrane fraction ([3]; HeLa YFP-Parkin, CCCP plus cycloheximide): blocked
effect on CCCP-induced Parkin recruitment to mitochondria ([4]; HeLa cells expressing YFP-Parkin, added together with CCCP): blocked
YFP-Parkin colocalization with mitochondria, % of cells ([4]; HeLa, 10 μM CCCP 1 hr+100 μM CHX (30 minutes pretreatment)): 11.3±4.2%
effect on abundance of accumulated full length PINK1 ([2]; HeLa, after 3 hours CCCP, continuous CCCP): little effect
effect on depolarization-induced accumulation of endogenous PINK1 ([2]; HeLa, cycloheximide 90 minutes, CCCP 60 minutes, whole cell lysates and membrane fraction): blocked

B1: R275W: YFP-Parkin mutation in RING1 (protein, UniProt O60260 1-465, looked up, variant R275W)
E3 ubiquitin-protein ligase …: MIVFVRFNSSHGFPVEVDSDTSIFQLKEVVAKRQGVPADQLRVIFAGKELRNDWTVQNCDLDQQSIVHIVQRPWRKGQEMNATGGDDPRNAAGGCEREPQSLTRVDLSSSVLPGDSVGLAVILHTDSRKDSPPAGSPAGRSIYNSFYVYCKGPCQRVQPGKLRVQCSTCRQATLTLTQGPSCWDDVLIPNRMSGECQSPHCPGTSAEFFFKCGAHPTSDKETSVALHLIATNSRNITCITCTDVRSPVLVFQCNSRHVICLDCFHLYCVTRLNDWQFVHDPQLGYSLPCVAGCPNSLIKELHHFRILGEEQYNRYQQYGAEECVLQMGGVLCPRPGCGAGLLPEPDQRKVTCEGGNGLGCGFAFCRECKEAYHEGECSAVFEASGTTTQAYRVDERAAEQARWEAASKETIKKTTKPCPRCHVPVEKNGGCMHMKCPQPQCRLEWCWNCGCEWNRVCMGDHWFDV
modifications: YFP fusion
notes: YFP-Parkin mutation in RING1
translocation of YFP-Parkin variant to mitochondria-rich membrane fraction [3]: increases localization in the membrane fraction
YFP-Parkin (wild type or indicated mutant) colocalization with mitochondria, % of cells ([4]; 10 μM CCCP): 81.7±2.1%
cells with no mitochondria [5]: 4.0±4%

B2: C332S: YFP-Parkin engineered mutation in conserved RING cysteine (protein, UniProt O60260 1-465, looked up, variant C332S)
E3 ubiquitin-protein ligase …: MIVFVRFNSSHGFPVEVDSDTSIFQLKEVVAKRQGVPADQLRVIFAGKELRNDWTVQNCDLDQQSIVHIVQRPWRKGQEMNATGGDDPRNAAGGCEREPQSLTRVDLSSSVLPGDSVGLAVILHTDSRKDSPPAGSPAGRSIYNSFYVYCKGPCQRVQPGKLRVQCSTCRQATLTLTQGPSCWDDVLIPNRMSGECQSPHCPGTSAEFFFKCGAHPTSDKETSVALHLIATNSRNITCITCTDVRSPVLVFQCNSRHVICLDCFHLYCVTRLNDRQFVHDPQLGYSLPCVAGCPNSLIKELHHFRILGEEQYNRYQQYGAEECVLQMGGVLSPRPGCGAGLLPEPDQRKVTCEGGNGLGCGFAFCRECKEAYHEGECSAVFEASGTTTQAYRVDERAAEQARWEAASKETIKKTTKPCPRCHVPVEKNGGCMHMKCPQPQCRLEWCWNCGCEWNRVCMGDHWFDV
modifications: YFP fusion
notes: YFP-Parkin engineered mutation in conserved RING cysteine
translocation of YFP-Parkin variant to mitochondria-rich membrane fraction [3]: No membrane translocation was detectable
recruitment of mutant YFP-Parkin to mitochondria ([4]; HeLa, 10 μM CCCP, 24 hours): Mitochondrial recruitment was seen
recruitment of mutant YFP-Parkin to depolarized mitochondria ([4]; HeLa, CCCP 1 hr): completely disrupt

B3: R42P: YFP-Parkin with pathogenic UBL domain mutation (protein, UniProt O60260 1-465, looked up, variant R42P)
E3 ubiquitin-protein ligase …: MIVFVRFNSSHGFPVEVDSDTSIFQLKEVVAKRQGVPADQLPVIFAGKELRNDWTVQNCDLDQQSIVHIVQRPWRKGQEMNATGGDDPRNAAGGCEREPQSLTRVDLSSSVLPGDSVGLAVILHTDSRKDSPPAGSPAGRSIYNSFYVYCKGPCQRVQPGKLRVQCSTCRQATLTLTQGPSCWDDVLIPNRMSGECQSPHCPGTSAEFFFKCGAHPTSDKETSVALHLIATNSRNITCITCTDVRSPVLVFQCNSRHVICLDCFHLYCVTRLNDRQFVHDPQLGYSLPCVAGCPNSLIKELHHFRILGEEQYNRYQQYGAEECVLQMGGVLCPRPGCGAGLLPEPDQRKVTCEGGNGLGCGFAFCRECKEAYHEGECSAVFEASGTTTQAYRVDERAAEQARWEAASKETIKKTTKPCPRCHVPVEKNGGCMHMKCPQPQCRLEWCWNCGCEWNRVCMGDHWFDV
modifications: YFP fusion
notes: YFP-Parkin with pathogenic UBL domain mutation
translocation of YFP-Parkin variant to mitochondria-rich membrane fraction [3]: No membrane translocation was detectable
YFP-Parkin (wild type or indicated mutant) colocalization with mitochondria, % of cells ([4]; 10 μM CCCP): 34±5.3%
cells with no mitochondria [5]: 22.0±2.0%
